Measured values from patent US20110033929A1.

Experiments:
human Langerin (human) [1] = molecular target: human Langerin (human) (UniProt Q9UJ71); assay: cell-based or functional assay
human Langerin (human) [2] = molecular target: human Langerin (human) (UniProt Q9UJ71); assay: immunogold electron microscopy, 4° C., 5 nm gold goat anti-mouse IgG, Langerhans cells of epidermal cell suspensions
human Langerin (human) [3] = molecular target: human Langerin (human) (UniProt Q9UJ71); assay: immunogold electron microscopy, 4° C., Langerhans cells of epidermal cell suspensions; isotype control for DCGM4

UniProt Q9UJ71, sequence (Q9UJ71 whole entry V278A): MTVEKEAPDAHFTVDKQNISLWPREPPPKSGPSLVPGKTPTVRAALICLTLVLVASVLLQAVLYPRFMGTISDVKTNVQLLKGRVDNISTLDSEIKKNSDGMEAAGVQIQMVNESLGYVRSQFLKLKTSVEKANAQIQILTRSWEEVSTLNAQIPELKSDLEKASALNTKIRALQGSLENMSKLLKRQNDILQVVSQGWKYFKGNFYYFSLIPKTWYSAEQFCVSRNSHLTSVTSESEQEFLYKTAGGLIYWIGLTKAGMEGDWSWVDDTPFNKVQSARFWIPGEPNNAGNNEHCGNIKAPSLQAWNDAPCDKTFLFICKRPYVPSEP

half-life (t1/2) of DCGM4 at the cytomembrane (human Langerin (human) [1]) [min] | internalization (decrease of cell-surface-bound antibody by FACS) (human Langerin (human) [1]) [%] | internalization rate k (human Langerin (human) [1]; scale: °/min) | gold granules/100 µm membrane (gold granules/100 µm membrane) (human Langerin (human) [2]) | gold granules/100 µm membrane (granules/100 µm) (human Langerin (human) [3]) | Substance
4.5 | 75 | 15.3 | 162 | – | monoclonal antibody DCGM4
– | – | – | – | 1.3 | control mouse IgG1 (Sigma) (antibody)
